# Experimental data reported in the supplement of paper PMC10065799, “High-throughput profiling of sequence recognition by tyrosine kinases and SH2 domains using bacterial peptide display” (eLife, 2023).
# System: c-Src
# Test: phosphorylation enrichment, bacterial display (enrichment ratio); higher = better substrate or ligand; peptides without Tyr show the background
# 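Throughout, for SH2 binding enrichment of the phosphorylated peptide, bacterial display: peptide library displayed on the E. coli surface as eCPX fusions, selected cells deep-sequenced, score is each peptide's frequency after selection divided by its frequency in the input.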
# 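Throughout, for phosphorylation enrichment, bacterial display: 11-residue human phosphosite peptides and single-mutation variants displayed on the E. coli surface, counted by deep sequencing, each peptide's frequency after selection divided by its frequency in the unselected input library; frequency after pTyr selection over input frequency; kinase dosed for 20-30% of maximal phosphorylation in three min.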
row,Sequence,phosphorylation enrichment
1,EKKKYYDTKIE [CASP5_Y104],0.452
2,FADIAYNYRQG [PAH_Y166_H170Q],0.522
3,PQDVTYARLHS [LILRB4_Y412_Q414R],2.3
4,AIGCEYSEINI [SIGLEC12_Y588_Y586C],2.47
5,HFIKLYEEKTG [PARP1_Y618_M615I],0.392
6,TENAGYFFRIS,0.514
7,KKYFSYAWPFY [BRDT_Y291_H288Y],0.435
8,SSTASYFKAPG [RFX2_Y108_E110K],0.394
9,LSNFNYEQRGA [API5_Y497_G493S],1.14
10,DAMQTYNGNDE [TSPAN7_Y131],0.685
11,LPSKDYAEVRR [HP_Y272_G276R],0.832
12,NTGVFYDLFGG [PTPN11_Y63_D61V_YF],4.82
13,NFDRVYIYHLR [MYOF_Y1137],1.01
14,GIVEDYRPPFC [ACVRL1_Y421_Y426C],0.517
15,ISIFHCAKGQP [MPZ_Y82_Y82C],0.609
16,NFGTNYRVGSS [CPO_Y278_K273N_YF],0.442
17,GACGGYCSVLG [RAB18_Y202],0.509
18,PLFKIYVAELI [MRPL28_Y230],0.791
19,DKATEYIQYVR [MAX_Y70_M74V],0.493
20,DPHKIFEFVNS [IRF3_Y107_Y107F],0.417
21,LERYIYNPEEF [HLA-DPB1_Y59_R61P],3.71
22,RVLKLYGCSPS [ASTL_Y279],0.516

# Molecular target: Grb2 SH2 (UniProt P62993)
# Test: SH2 binding enrichment of the phosphorylated peptide, bacterial display (enrichment ratio); higher = better substrate or ligand; peptides without Tyr show the background
# Sequence of Grb2 SH2 (P62993 whole entry, looked up): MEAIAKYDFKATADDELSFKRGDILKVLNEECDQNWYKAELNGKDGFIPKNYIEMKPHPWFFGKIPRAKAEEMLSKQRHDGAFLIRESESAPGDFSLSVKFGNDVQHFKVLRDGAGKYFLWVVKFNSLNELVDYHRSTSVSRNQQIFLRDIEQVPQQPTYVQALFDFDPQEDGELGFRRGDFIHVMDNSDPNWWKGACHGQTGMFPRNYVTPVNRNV
row,Sequence,SH2 binding enrichment
1,EKKKYYDTKIE [CASP5_Y104],0.752
2,FADIAYNYRQG [PAH_Y166_H170Q],1.02
3,PQDVTYARLHS [LILRB4_Y412_Q414R],0.85
4,AIGCEYSEINI [SIGLEC12_Y588_Y586C],0.603
5,HFIKLYEEKTG [PARP1_Y618_M615I],1.16
6,TENAGYFFRIS,0.753
7,KKYFSYAWPFY [BRDT_Y291_H288Y],1.93
8,SSTASYFKAPG [RFX2_Y108_E110K],0.891
9,LSNFNYEQRGA [API5_Y497_G493S],0.897
10,DAMQTYNGNDE [TSPAN7_Y131],0.654
11,LPSKDYAEVRR [HP_Y272_G276R],0.965
12,NTGVFYDLFGG [PTPN11_Y63_D61V_YF],0.59
13,NFDRVYIYHLR [MYOF_Y1137],1.23
14,GIVEDYRPPFC [ACVRL1_Y421_Y426C],0.887
15,ISIFHCAKGQP [MPZ_Y82_Y82C],1.04
16,NFGTNYRVGSS [CPO_Y278_K273N_YF],0.88
17,GACGGYCSVLG [RAB18_Y202],0.875
18,PLFKIYVAELI [MRPL28_Y230],0.82
19,DKATEYIQYVR [MAX_Y70_M74V],0.94
20,DPHKIFEFVNS [IRF3_Y107_Y107F],0.662
21,LERYIYNPEEF [HLA-DPB1_Y59_R61P],0.866
22,RVLKLYGCSPS [ASTL_Y279],0.895

# Molecular target: SHP2-C SH2
# Test: as above
row,Sequence,SH2 binding enrichment
1,EKKKYYDTKIE [CASP5_Y104],0.505
2,FADIAYNYRQG [PAH_Y166_H170Q],0.669
3,PQDVTYARLHS [LILRB4_Y412_Q414R],5.59
4,AIGCEYSEINI [SIGLEC12_Y588_Y586C],0.362
5,HFIKLYEEKTG [PARP1_Y618_M615I],1.57
6,TENAGYFFRIS,0.593
7,KKYFSYAWPFY [BRDT_Y291_H288Y],1.66
8,SSTASYFKAPG [RFX2_Y108_E110K],0.885
9,LSNFNYEQRGA [API5_Y497_G493S],0.706
10,DAMQTYNGNDE [TSPAN7_Y131],0.613
11,LPSKDYAEVRR [HP_Y272_G276R],1.31
12,NTGVFYDLFGG [PTPN11_Y63_D61V_YF],0.766
13,NFDRVYIYHLR [MYOF_Y1137],5.25
14,GIVEDYRPPFC [ACVRL1_Y421_Y426C],0.713
15,ISIFHCAKGQP [MPZ_Y82_Y82C],0.521
16,NFGTNYRVGSS [CPO_Y278_K273N_YF],0.634
17,GACGGYCSVLG [RAB18_Y202],2.48
18,PLFKIYVAELI [MRPL28_Y230],0.634
19,DKATEYIQYVR [MAX_Y70_M74V],1.27
20,DPHKIFEFVNS [IRF3_Y107_Y107F],0.703
21,LERYIYNPEEF [HLA-DPB1_Y59_R61P],0.851
22,RVLKLYGCSPS [ASTL_Y279],0.93

# Molecular target: c-Src SH2
# Test: as above
row,Sequence,SH2 binding enrichment
1,EKKKYYDTKIE [CASP5_Y104],0.498
2,FADIAYNYRQG [PAH_Y166_H170Q],0.469
3,PQDVTYARLHS [LILRB4_Y412_Q414R],1.12
4,AIGCEYSEINI [SIGLEC12_Y588_Y586C],0.631
5,HFIKLYEEKTG [PARP1_Y618_M615I],0.872
6,TENAGYFFRIS,0.432
7,KKYFSYAWPFY [BRDT_Y291_H288Y],1.43
8,SSTASYFKAPG [RFX2_Y108_E110K],0.608
9,LSNFNYEQRGA [API5_Y497_G493S],0.48
10,DAMQTYNGNDE [TSPAN7_Y131],0.71
11,LPSKDYAEVRR [HP_Y272_G276R],1.72
12,NTGVFYDLFGG [PTPN11_Y63_D61V_YF],0.743
13,NFDRVYIYHLR [MYOF_Y1137],0.896
14,GIVEDYRPPFC [ACVRL1_Y421_Y426C],0.569
15,ISIFHCAKGQP [MPZ_Y82_Y82C],0.524
16,NFGTNYRVGSS [CPO_Y278_K273N_YF],0.418
17,GACGGYCSVLG [RAB18_Y202],8.18
18,PLFKIYVAELI [MRPL28_Y230],0.574
19,DKATEYIQYVR [MAX_Y70_M74V],0.517
20,DPHKIFEFVNS [IRF3_Y107_Y107F],0.425
21,LERYIYNPEEF [HLA-DPB1_Y59_R61P],0.677
22,RVLKLYGCSPS [ASTL_Y279],0.566
